Results reported in patent US20060292151A1, “L-SIGN polymorphisms and methods involving use of same” (priority 2004, published 2006).

Tests used:
L-SIGN-9 (human) [1] = experiment: flow cytometry on HeLa-SIGN transfectants
[2] = target: HeLa-SIGN transfectants (L-SIGN isoforms tested); experiment: flow cytometry, E2 at 5 µg/ml; upper end not tied to an isoform
L-SIGN-9 (human) [3] = experiment: flow cytometry, E2 at 5 µg/ml; lower end tied to L-SIGN-9 by the words L-SIGN-9 cells showing the lowest levels of binding
L-SIGN-7 (human) = L-SIGN-7 (human) (UniProt Q9H2X3); experiment: HCVpp supernatant on HeLa-SIGN transfectants, cell-bound p24 by ELISA
Chain of L-SIGN-7 (human) (Q9H2X3 whole entry): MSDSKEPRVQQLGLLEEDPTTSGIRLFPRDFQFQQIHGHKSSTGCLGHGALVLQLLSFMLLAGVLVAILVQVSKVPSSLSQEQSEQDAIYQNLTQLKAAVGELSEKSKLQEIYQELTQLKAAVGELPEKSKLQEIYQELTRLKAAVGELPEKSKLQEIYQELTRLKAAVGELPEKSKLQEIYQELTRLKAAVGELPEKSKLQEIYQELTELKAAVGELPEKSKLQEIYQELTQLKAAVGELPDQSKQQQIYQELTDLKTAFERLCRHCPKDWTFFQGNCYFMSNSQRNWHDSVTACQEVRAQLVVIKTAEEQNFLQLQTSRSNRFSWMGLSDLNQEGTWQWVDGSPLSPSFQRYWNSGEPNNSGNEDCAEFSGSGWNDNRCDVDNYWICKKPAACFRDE

| Substance | fold lower binding than the other isoforms (L-SIGN-9 (human) [1]) [fold] | fold above background binding to parental HeLa [2] [fold] | specific binding, percent of cells [2] | fold above background binding to parental HeLa (L-SIGN-9 (human) [3]) [fold] | specific binding, percent of cells (L-SIGN-9 (human) [3]) | fold higher binding than to the other isoforms (L-SIGN-7 (human)) [fold] |
| --- | --- | --- | --- | --- | --- | --- |
| soluble E2 glycoprotein | 2 to 3 | 25 | 93 % of cells | 9 | 35 % of cells | – |
| HCV pseudovirus particles (HCVpp) (from UniProt P27958 192-383; P27958 384-746) (other; other documents disagree on this pair) | – | – | – | – | – | 2 |
